Columns and labels:
[1] = target: the molecule itself; assay: HPLC/ESI mass spectrometry
non-reducing SDS-PAGE = target: the molecule itself; assay: non-reducing SDS-PAGE

B1: bZIP domain of Activating Transcription Factor 5 (ATF5), untagged (domain or fragment, UniProt Q9Y2D1 208-271, looked up)
chain: GDRKQKKRDQNKSAALRYRQRKRAEGEALEGECQGLEARNRELKERAESVEREIQYVKDLLIEV
Question: B1 was tested. Which “stoichiometry N” value [1] did it give?
Answer: 2

Question: What about the “monomer:dimer ratio (densitometry of the SDS-PAGE gel)” value (non-reducing SDS-PAGE) of the same protein?
Answer: 1.7 dimer per 1.0 monomer

Reference: article PMC2599749 (Protein expression and purification, 2008)
